According to patent publication US20230270828A1, “COMPOSITION FOR USE IN THE TREATMENT OF VIRAL INFECTIONS” (BICT S.R.L., priority 2020, published 2023):
Where two headings read alike, the source gives them in different places. Marks after values point to notes of the source that are not given here.

Tests used:
SARS-CoV-2 = assay type: cell-based
[1] = system: Vero cells (Monkey Kidney Epithelial Cells); settings: Vero cells

B1: lactoferrin (protein, UniProt P24627 20-708, looked up)
Lactotransferrin: APRKNVRWCTISQPEWFKCRRWQWRMKKLGAPSITCVRRAFALECIRAIAEKKADAVTLDGGMVFEAGRDPYKLRPVAAEIYGTKESPQTHYYAVAVVKKGSNFQLDQLQGRKSCHTGLGRSAGWIIPMGILRPYLSWTESLEPLQGAVAKFFSASCVPCIDRQAYPNLCQLCKGEGENQCACSSREPYFGYSGAFKCLQDGAGDVAFVKETTVFENLPEKADRDQYELLCLNNSRAPVDAFKECHLAQVPSHAVVARSVDGKEDLIWKLLSKAQEKFGKNKSRSFQLFGSPPGQRDLLFKDSALGFLRIPSKVDSALYLGSRYLTTLKNLRETAEEVKARYTRVVWCAVGPEEQKKCQQWSQQSGQNVTCATASTTDDCIVLVLKGEADALNLDGGYIYTAGKCGLVPVLAENRKSSKHSSLDCVLRPTEGYLAVAVVKKANEGLTWNSLKDKKSCHTAVDRTAGWNIPMGLIVNQTGSCAFDEFFSQSCAPGADPKSRLCALCAGDDQGLDKCVPNSKEKYYGYTGAFRCLAEDVGDVAFVKNDTVWENTNGESTADWAKNLNREDFRLLCLDGTRKPVTEAQSCHLAVAPNHAVVSRSDRAAHVKQVLLHQQALFGKNGKNCPDKFCLFKSETKNLLFNDNTECLAKLGGRPTYEEYLGTEYVTAIANLKKCSTSPLLEACAFLTR
notes: multifunctional globular protein of the transferrin family, 80 KDa
Mean ΔCt (SARS-CoV-2; 0.59 mg/ml, scheme A (preincubation of virus with compound)): 0.23
Mean ΔCt (SARS-CoV-2; 0.59 mg/ml, scheme B+C (during and after inoculum)): 0.04
Mean ΔCt (SARS-CoV-2; 0.59 mg/ml, scheme B+C+D (during, after inoculum and repeated)): −0.25
Mean ΔCt (SARS-CoV-2; 1.17 mg/ml, scheme A (preincubation of virus with compound)): 0.76
Mean ΔCt (SARS-CoV-2; 1.17 mg/ml, scheme B+C (during and after inoculum)): −0.08
Mean ΔCt (SARS-CoV-2; 1.17 mg/ml, scheme B+C+D (during, after inoculum and repeated)): −0.21
Mean ΔCt (SARS-CoV-2; 2.34 mg/ml, scheme A (preincubation of virus with compound)): 0.42
Mean ΔCt (SARS-CoV-2; 2.34 mg/ml, scheme B+C (during and after inoculum)): −0.28
Mean ΔCt (SARS-CoV-2; 2.34 mg/ml, scheme B+C+D (during, after inoculum and repeated)): −0.47
Mean ΔCt (SARS-CoV-2; 4.68 mg/ml, scheme A (preincubation of virus with compound)): 0.25
Mean ΔCt (SARS-CoV-2; 4.68 mg/ml, scheme B+C (during and after inoculum)): −1.52
Mean ΔCt (SARS-CoV-2; 4.68 mg/ml, scheme B+C+D (during, after inoculum and repeated)): −2.47
CC10 ([1]; 72 h, MTT): >4.68§ mg/ml
CC50 ([1]; 72 h, MTT): >4.68§ mg/ml
maximum nontoxic concentration (assumed) ([1]; based on CC50/CC10 data): 4.68 mg/mL
